Data from publication PMC4128088 (Structure (London, England : 1993), 2014).

Molecular target: the molecule itself
Experiment: SAXS

B1: Human Presequence Protease E107Q (hPreP E107Q) (enzyme, UniProt Q5JRX3 34-1037, looked up)
chain: CERALQYKLGDKIHGFTVNQVTSVPELFLTAVKLTHDDTGARYLHLAREDTNNLFSVQFRTTPMDSTGVPHILQHTVLCGSQKYPCRDPFFKMLNRSLSTFMNAFTASDYTLYPFSTQNPKDFQNLLSVYLDATFFPCLRELDFWQEGWRLEHENPSDPQTPLVFKGVVFNEMKGAFTDNERIFSQHLQNRLLPDHTYSVVSGGDPLCIPELTWEQLKQFHATHYHPSNARFFTYGNFPLEQHLKQIHEEALSKFQKIEPSTVVPAQTPWDKPREFQITCGPDSFATDPSKQTTISVSFLLPDITDTFEAFTLSLLSSLLTSGPNSPFYKALIESGLGTDFSPDVGYNGYTREAYFSVGLQGIAEKDIETVRSLIDRTIDEVVEKGFEDDRIEALLHKIEIQMKHQSTSFGLMLTSYIASCWNHDGDPVELLKLGNQLAKFRQCLQENPKFLQEKVKQYFKNNQHKLTLSMRPDDKYHEKQAQVEATKLKQKVEALSPGDRQQIYEKGLELRSQQSKPQDASCLPALKVSDIEPTIPVTELDVVLTAGDIPVQYCAQPTNGMVYFRAFSSLNTLPEELRPYVPLFCSVLTKLGCGLLDYREQAQQIELKTGGMSASPHVLPDDSHMDTYEQGVLFSSLCLDRNLPDMMQLWSEIFNNPCFEEEEHFKVLVKMTAQELANGIPDSGHLYASIRAGRTLTPAGDLQETFSGMDQVRLMKRIAEMTDIKPILRKLPRIKKHLLNGDNMRCSVNATPQQMPQTEKAVEDFLRSIGRSKKERRPVRPHTVEKPVPSSSGGDAHVPHGSQVIRKLVMEPTFKPWQMKTHFLMPFPVNYVGECIRTVPYTDPDHASLKILARLMTAKFLHTEIREKGGAYGGGAKLSHNGIFTLYSYRDPNTIETLQSFGKAVDWAKSGKFTQQDIDEAKLSVFSTVDAPVAPSDKGMDHFLYGLSDEMKQAHREQLFAVSHDKLLAVSDRYLGTGKSTHGLAILGPENPKIAKDPSWIIQ
For B1, the “stoichiometry N” value was 2.
